Source: patent US7341836B2, “Modified cyclic nucleotide gated ion channels” (The Regents of the University of Colorado, priority 2001, dated 2008)
Where “and” joins values, the source holds several entries; their conditions need not be identical. Equal entries are not always repeated.

How the values were obtained:
PDE II = molecular target: T1, PDE II (Homo sapiens, UniProt O00408); settings: read-out: IC50, PDE II; cited from earlier work
T1 construct: host or cells: heterologously expressed human PDE; human heart
T1 sequence (O00408 whole entry): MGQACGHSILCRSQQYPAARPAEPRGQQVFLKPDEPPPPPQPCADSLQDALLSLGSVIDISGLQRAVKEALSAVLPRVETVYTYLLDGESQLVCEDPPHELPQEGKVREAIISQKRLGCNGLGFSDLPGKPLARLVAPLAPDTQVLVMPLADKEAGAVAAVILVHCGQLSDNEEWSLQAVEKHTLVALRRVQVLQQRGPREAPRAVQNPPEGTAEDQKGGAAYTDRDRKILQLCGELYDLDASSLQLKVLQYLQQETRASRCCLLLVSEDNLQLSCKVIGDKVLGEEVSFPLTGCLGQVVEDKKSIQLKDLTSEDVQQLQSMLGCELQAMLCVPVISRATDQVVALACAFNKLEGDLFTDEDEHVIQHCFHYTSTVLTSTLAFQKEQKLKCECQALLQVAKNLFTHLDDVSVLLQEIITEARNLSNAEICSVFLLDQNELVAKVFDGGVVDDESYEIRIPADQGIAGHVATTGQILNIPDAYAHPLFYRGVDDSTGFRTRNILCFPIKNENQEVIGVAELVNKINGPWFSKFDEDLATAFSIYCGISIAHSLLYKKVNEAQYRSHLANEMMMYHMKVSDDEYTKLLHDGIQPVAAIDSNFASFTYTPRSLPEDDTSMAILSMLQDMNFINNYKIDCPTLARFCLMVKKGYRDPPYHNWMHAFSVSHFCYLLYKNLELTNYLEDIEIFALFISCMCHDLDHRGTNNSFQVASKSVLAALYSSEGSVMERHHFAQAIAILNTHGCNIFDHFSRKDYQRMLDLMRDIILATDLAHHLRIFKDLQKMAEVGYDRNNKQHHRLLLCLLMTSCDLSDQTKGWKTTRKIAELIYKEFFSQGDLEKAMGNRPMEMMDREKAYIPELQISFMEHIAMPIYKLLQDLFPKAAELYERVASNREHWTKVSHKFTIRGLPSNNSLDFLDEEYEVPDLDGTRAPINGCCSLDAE

PDE III = settings: cited from earlier work
[1] = system: PDE activity in GH4C1 cells; test: Effect of PDE inhibitors, forskolin and VIP on cAMP levels (Ca2+ influx through CNG channels); type: cell-based, rat; settings: basal cAMP; C460W/E583M channels; inhibitor concentration (μM)
Protocol: To further test the utility of this approach, PDE activity in excitable GH4C1 pituitary cells was examined. In all of the experiments shown (See, FIGS. 13-14, and Table 2), 1 μM nimodipine was added at time zero to block Ca^2+ influx though voltage-gated Ca^2+ channels (triggered by membrane depolarization due to Ca^2+ and Na^+ influx through CNG channels). […] FIGS. 13 and 14 each depict experiments done on a single batch of cells. As before, similar results were obtained on three other batches. In the experiments that produced the data shown in Table 2, cAMP concentrations were monitored using Ca^2+ influx through C460W/E583M channels. […] Either 100 μM IBMX or vehicle (-IBMX; control) were added at time zero. Then, 50 μM forskolin were added at 180 seconds d(ΔF/F0)/dt, which is proportional to the Ca^2+ influx rate, was estimated as described in the Examples. Data are provided as mean±standard error. IBMX or vehicle was added at 60 seconds (first arrow in FIG. 13). Either 10 μM forskolin or 100 nM VIP were added at 240 seconds (second arrow in FIG. 13). In the absence of IBMX, large forskolin or VIP-induced increases in Ca^2+ influx were observed. […] This level of basal AC activity was quite different from that observed in HEK-293 cells (See, FIGS. 9 and 10). 1 μM nimodipine was added at time 0 to block endogenous voltage-gated Ca^2+ channels.
To identify the PDE family or families that regulate the local cAMP concentration in GH4C1 cells, cAMP accumulation was monitored in the presence and absence of PDE inhibitors (See, Table 2). Again, the high cAMP affinity C460W/E583M channels were used. PDE inhibitors were added at 60 s. Although the addition of IBMX alone triggered Ca^2+ influx, 10 μM forskolin were added at 240 s as a positive control for CNG channel activity. […] This PDE is likely to have a low Km for cAMP because it is capable of regulating cAMP at concentrations too low for the WT or Δ61-90/C460W/E583M channels to detect. Thus, it is contemplated that a Ca^2+-CaM stimulated PDE (type I) is primarily responsible for controlling basal cAMP signals in GH4C1 cells.
In addition, PDE activity was monitored using Δ61-90/C460W/E583M channels to detect changes in cAMP concentration (See, FIG. 14). PDE inhibitors and forskolin were added as described above. With this construct, it was not possible to observe changes in cAMP concentration due to inhibition of PDE activity alone. […] Inhibitors specific to other PDE types had no effect on the forskolin-induced Ca^2+ influx (data not shown). […] It is contemplated that Ca^2+ influx through the C460W/E583M channels was saturated at cAMP concentrations below the Km for this PDE. Thus, it is contemplated that there are two different PDE types that regulate local cAMP signals in GH4C1 cells: a low Km, 8-methoxymethyl-IBMX sensitive PDE (type I); and a high Km, RO-20-1724-, rolipram-sensitive PDE (type IV).
GH4C1 rat pituitary cells (ATCC) were maintained in 13 mL Ham's F-10 medium (Life Technologies) supplemented with 14.3 mM NaHCO3, 15% donor horse serum (Gemini), and 2.5% fetal bovine serum, pH 6.8, in 75 cm^2 flasks at 37° C. in a humidified atmosphere of 95% air and 5% CO2. Cells were split weekly (1:4) and washed with fresh medium twice weekly. Cells were plated at ˜60% confluence in 100 mm culture dishes twenty-four hours prior to infection with the CNG-channel-encoding adenovirus constructs (multiplicity of infection=50 plaque forming units per cell). Forty-eight hours post-infection cells were detached, resuspended in serum-containing medium, and assayed within 12 hours.
In this Example, experiments conducted to examine the response of excitable GH4C1 pituitary cells to stimulation by either forskolin or the hormone vasoactive intestinal peptide (VIP), in the presence of absence of PDE inhibitors are described. […]

[2] = system: HEK-293 cells expressing CNG channels; test: Forskolin-induced cAMP accumulation monitored by Ca2+ influx (fura-2) through expressed CNG channels; type: cell-based, human; settings: 100 μM IBMX; forskolin 0-50 μM
Protocol: Next, experiments were conducted to assess the ability of each channel construct to detect increases in local cAMP concentration. Changes in cAMP concentration were detected using fura-2 to monitor Ca^2+ influx through CNG channels, as described in the Examples. Ca^2+ influx induced by different concentrations of forskolin, an AC activator, in the presence of 100 μM IBMX, a nonselective PDE inhibitor was measured. This approach allowed comparisons to be made between the cAMP sensitivities of the different channels to changes in cAMP, regardless of variations in expression levels between experiments. In HEK-293 cells expressing the WT channel, addition of forskolin was followed by a brief delay and an increase in Ca^2+ influx (See, FIG. 7, Panel A). The delay decreased and the rate of Ca^2+ influx increased in a dose-dependent manner. Neither effect was saturated at 50 μM forskolin. In cells expressing the E583M channel, addition of forskolin was also followed by a brief delay and an increase in Ca^2+ influx (FIG. 7, Panel B). As with the WT channel, the delay and the initial rate of Ca^2+ influx were dose-dependent. […] In cells expressing the Δ61-90/C460W/E583M channel, addition of forskolin caused similar increases in Ca^2+ influx as the E583M channel, including saturation of the delay and rate of influx at 20 μM (compare FIG. 7, Panel B with FIG. 7, Panel D). The increased response of the modified channels to forskolin treatment is consistent with the apparent cAMP affinities measured in excised patches in the absence of Ca^2+-CaM (C460W/E583M>E583M˜Δ61-90/C460W/E583>WT channels). There are several factors that may have contributed to the apparent lack of a Ca^2+-CaM effect on the channels.
Briefly, HEK-293 were maintained in MEM (Life Technologies Inc.) supplemented with 26.2 mM NaHCO3, 10% (v/v) fetal bovine serum (Gemini), penicillin (50 μg/mL), and streptomycin ([…]), pH 7.0, at 37° C. in a humidified atmosphere of 95% air and 5% CO2. Cells were plated at ˜60% confluence in 100 mm culture dishes twenty-four hours prior to infection with the CNG-channel-encoding adenovirus constructs (multiplicity of infection=10 plaque forming units per cell). […] Twenty-four hours post-infection cells were detached with phosphate-buffered saline containing 0.03% EDTA, resuspended in serum-containing medium, and assayed within 12 hours.

[3] = system: rat olfactory CNG channel α subunit; test: Excised inside-out patch recordings, cyclic nucleotide dose-response of CNG channel constructs; type: biochemical; settings: for Imax^cGMP/Imax^cAMP: current at saturating cGMP divided by current at saturating cAMP
Protocol: As described in greater detail herein, the effects of modifications to CNG channels were assessed using the Hill equation, I/Imax=[cNMP]^N/([cNMP]^N+K1/2^N), where I/Imax is the fraction of maximal current, cNMP represents cyclic nucleotide, K1/2 is the concentration that gives half-maximal current, and N is the Hill coefficient, an index of cooperativity. I/Imax^cGMP/Imax^cAMP is the current induced by saturating cGMP divided by the current induced by saturating cAMP. Data (mean±standard deviation of three experiments) were obtained from excised membrane patches using standard patch clamp techniques.
To assess the cyclic nucleotide sensitivity of different CNG channel constructs, excised, inside-out patch recordings were made at room temperature (20-21° C.) using an Axopatch-200A patch clamp amplifier (Axon Instruments Inc.). Pipettes were pulled from borosilicate glass and heat polished. Pipettes were lowered onto the cells and gigaohm seals were formed. Patches were excised by shearing cells from the pipette with a jet of liquid. Ionic currents were elicited by 250 ms pulses to membrane potentials of +50 and −50 mV from a holding potential of 0 mV. Current records were sampled at five times the filter setting and stored on an IBM compatible computer. Records were corrected for errors due to series resistance (pipette resistance was 4.1 ±0.1 MΩ). Both the pipette and bath solutions contained (mM): 130 NaCl, 2 HEPES, 0.02 EDTA, and 1 EGTA, pH 7.6. Cyclic nucleotide-induced currents were obtained from the difference between currents in the presence and absence of cyclic nucleotides. Dose response curves for cAMP and cGMP were obtained at +50 and −50 mV in the same patch. The effects of the modifications were assessed using the Hill equation, I/Imax=[cNMP]^N/([cNMP]^N+K1/2^N), where I/Imax is the fraction of maximal current, cNMP represents cyclic nucleotide, K1/2 is the concentration that gives half-maximal current, and N is the Hill coefficient, an index of cooperativity. K1/2 and N for cAMP were 36±5 μM, 10±2 μM, 1.0±0.3 μM, and […] for WT, E583M, C460/E583M, and Δ61-90/C460W/E583M channels, respectively (See, Rich et al., J. Gen. Physiol. [2001], supra).
The cyclic nucleotide sensitivity of the C460W/E583M CNG channel was assessed in excised, inside-out patches as known in the art (See, Rich et al. [2001], supra). K1/2 and N were 1.1±0.3 μM and 2.1±0.4 at +50 mV; and 1.0±0.3 μM and 2.0 ±0.3 at −50 mV (n=11). With these values, the cAMP concentration could be calculated from currents measured in perforated patch experiments (Rich et al. Proc. Natl. Acad. Sci. [2001], supra).

## COc1cc2c(cc1OC)-c1c/c(=N\c3c(C)cc(C)cc3C)n(C)c(=O)n1CC2 [Trequinsin]
PDE II
  IC50: 500 to 2000 nM
PDE III
  IC50: 0.3 nM
[1]
  d(ΔF/F0)/dt: 0 s⁻¹

B1: Δ61-90/C460W/E583M: modified rat olfactory cyclic nucleotide-gated ion channel containing the Δ61-90/C460W/E583M mutation, SEQ ID NO:7 (protein, listed as Rattus norvegicus)
chain: MMTEKSNGVKSSPANNHNHHPPPSIKANGKDDHRAGSRPQSVAADDDTSPELQRLAEMDTPRPDSFLERFRGPELQTVTTHQGDDKGGKDGEGKGTKKKFELFVLDPAGDWYYRWLFVIAMPVLYNWCLLVARACFSDLQRNYFVVWLVLDYFSDTVYIADLIIRLRTGFLEQGLLVKDPKKLRDNYIHTLQFKLDVASIIPTDLIYFAVGIHSPEVRFNRLLHFARMFEFFDRTETRTSYPNIFRISNLVLYILVIIHWNACIYYVISKSIGFGVDTWVYPNITDPEYGYLAREYIYCLYWSTLTLTTIGETPPPVKDEEYLFVIFDFLIGVLIFATIVGNVGSMISNMNATRAEFQAKIDAVKHYMQFRKVSKDMEAKVIKWFDYLWTNKKTVDEREVLKNLPAKLRAEIAINVHLSTLKKVRIFQDWEAGLLVELVLKLRPQVFSPGDYICRKGDIGKEMYIIKEGKLAVVADDGVTQYALLSAGSCFGEISILNIKGSKMGNRRTANIRSLGYSDLFCLSKDDLMEAVTEYPDAKKVLEERGREILMKMGLLDENEVAASMEVDVQEKLEQLETNMDTLYTRFARLLAEYTGAQQKLKQRITVLETKMKQNHEDDYLSDGINTPEPTAAE
[2]
  forskolin concentration at which delay and rate of Ca2+ influx saturated: 20 µM
[3]; +50 mV
  Imax^cGMP/Imax^cAMP: 0.16 ± 0.08
[3]; −50 mV
  Imax^cGMP/Imax^cAMP: 0.09 ± 0.06
[3]; excised patches
  current elicited by saturating cGMP as % of the current elicited by saturating cAMP: 16% and < 20%
